Consider two molecules from patent US20140228546A1 (Ablynx, published 2014).

Assay [1] deals with T1, cynomolgus serum albumin (cynomolgus, UniProt A2V9Z4 25-608).
T1 construct: also called Cyno SA
Nature of the assay: SPR, Biacore T100, albumin immobilized on CM5, 25 C, 1:1 model. (SPR reads the build-up and loss of mass on a sensor chip optically.)
Method: (§1) HBS-EP+ buffer (0.01M HEPES buffer containing 0.15M NaCl, 3 mM EDTA and 0.05% Surfactant p20, pH7.4) was used as the running buffer and experiments were performed at 25° C. Serum albumin was chemically coupled on a Series S sensorchip chip CM5 with carboxymethylated dextran surface by a manual immobilization run at a flow rate of 5 μl/min. […] After immobilization, surfaces were deactivated with a 7 min injection of 1M ethanolamine pH8.5. A blank reference surface (flowcell 1) was activated and deactivated as described above. […] Between different samples, the surfaces were regenerated with regeneration buffer 10 mM glycine-HCl pH1.5, 100 s at 45 μl/min. Data were double referenced by subtraction of the curves on the reference channel and of a blank running buffer injection curve. Processed curves were evaluated by fitting a 1:1 binding model onto the binding curves in the Biacore T100 Evaluation software.

Assay [2] has as its target T2, human serum albumin (human, UniProt P02768 25-609).
T2 construct: also called Human SA; HSA
The assay is described as above.
Method: as §1

The target of assay [3] is T1, cynomolgus serum albumin. Kind of assay: method not stated (Table 6 comparison).
Assay [4] has as its target T2, human serum albumin. Kind of assay: method not stated (Table 6 comparison).
Assay [5] addresses T3, c-MET receptor on A549 cells (UniProt P08581 25-1390, limits assumed). Nature of the assay: cell-based or functional assay.
Assay [6] deals with T3, c-MET receptor on A549 cells. Nature of the assay: cell-based or functional assay. The source holds these as a separate data set.
Assay [7] deals with T4, c-MET/Fc (UniProt P08581 25-932).
T4 construct: also called c-MET receptor; not shown: Fc part, captured by anti-human Fc acceptor beads
T4 sequence (P08581 25-932 limits assumed): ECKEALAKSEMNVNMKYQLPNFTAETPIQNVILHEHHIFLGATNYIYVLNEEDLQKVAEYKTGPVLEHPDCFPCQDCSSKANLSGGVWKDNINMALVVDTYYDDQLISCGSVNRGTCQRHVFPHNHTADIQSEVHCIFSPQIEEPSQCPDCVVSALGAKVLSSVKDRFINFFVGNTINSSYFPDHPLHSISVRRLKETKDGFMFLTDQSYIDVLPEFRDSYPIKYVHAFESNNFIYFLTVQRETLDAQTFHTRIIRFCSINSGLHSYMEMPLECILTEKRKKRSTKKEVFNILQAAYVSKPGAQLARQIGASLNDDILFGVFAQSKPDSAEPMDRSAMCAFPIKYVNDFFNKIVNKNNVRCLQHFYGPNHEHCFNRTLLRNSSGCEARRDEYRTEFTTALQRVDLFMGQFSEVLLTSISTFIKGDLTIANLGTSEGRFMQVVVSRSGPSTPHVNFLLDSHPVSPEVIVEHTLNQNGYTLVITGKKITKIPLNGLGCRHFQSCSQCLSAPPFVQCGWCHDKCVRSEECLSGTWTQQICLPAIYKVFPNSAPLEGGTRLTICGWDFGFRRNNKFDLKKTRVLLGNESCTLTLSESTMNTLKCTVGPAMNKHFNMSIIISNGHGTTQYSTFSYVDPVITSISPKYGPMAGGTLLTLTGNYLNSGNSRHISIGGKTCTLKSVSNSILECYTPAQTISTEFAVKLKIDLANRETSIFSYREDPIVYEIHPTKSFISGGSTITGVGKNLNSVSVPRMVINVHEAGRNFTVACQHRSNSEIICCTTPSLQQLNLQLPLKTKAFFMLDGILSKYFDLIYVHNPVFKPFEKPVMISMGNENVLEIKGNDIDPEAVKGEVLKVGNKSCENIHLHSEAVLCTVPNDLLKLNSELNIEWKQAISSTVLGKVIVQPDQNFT
Nature of the assay: HGF/c-MET competition AlphaScreen; competitor: 100 pM biotinylated hHGF. Background: Alpha assays give light when donor and acceptor beads are brought close together.

Assay [8] has as its target T5, mouse serum albumin (mouse, UniProt P07724 25-608).
T5 construct: also called Murine SA
Nature of the assay: SPR, Biacore T100, albumin immobilized on CM5, 25 C, 1:1 model.
Method: as §1

For assay [9], the target named is T4, c-MET/Fc. Kind of assay: HGF/c-MET competition AlphaScreen; competitor: 100 pM biotinylated hHGF. The source holds these as a separate data set.
Method: To this mixture the anti-human Fc conjugated acceptor beads and c-MET/Fc (100 μM final concentration) were added and incubated for 2 hours at RT. Next, streptavidin donor beads were added and the mixture was incubated for 1 additional hour. Fluorescence was measured by reading plates on the EnVision Multilabel Plate Reader using an excitation wavelength of 680 nm and an emission wavelength of 520 nm.

T2 sequence (P02768 25-609 limits assumed): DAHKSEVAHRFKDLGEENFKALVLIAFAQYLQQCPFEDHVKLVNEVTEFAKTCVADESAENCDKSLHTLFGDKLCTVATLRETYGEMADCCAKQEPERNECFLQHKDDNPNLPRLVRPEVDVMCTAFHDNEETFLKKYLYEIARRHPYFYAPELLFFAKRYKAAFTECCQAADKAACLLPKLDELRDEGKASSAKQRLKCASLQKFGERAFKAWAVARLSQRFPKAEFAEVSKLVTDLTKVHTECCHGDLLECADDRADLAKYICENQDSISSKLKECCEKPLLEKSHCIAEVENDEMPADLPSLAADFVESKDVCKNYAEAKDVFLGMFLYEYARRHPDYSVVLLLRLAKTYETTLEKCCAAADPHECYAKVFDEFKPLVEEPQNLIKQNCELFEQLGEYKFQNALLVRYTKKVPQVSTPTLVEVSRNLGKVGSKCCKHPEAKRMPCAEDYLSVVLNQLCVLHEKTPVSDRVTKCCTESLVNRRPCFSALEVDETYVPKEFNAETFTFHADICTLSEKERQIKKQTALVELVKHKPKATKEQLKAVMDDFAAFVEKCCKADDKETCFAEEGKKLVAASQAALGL
T3 sequence (P08581 25-1390 limits assumed): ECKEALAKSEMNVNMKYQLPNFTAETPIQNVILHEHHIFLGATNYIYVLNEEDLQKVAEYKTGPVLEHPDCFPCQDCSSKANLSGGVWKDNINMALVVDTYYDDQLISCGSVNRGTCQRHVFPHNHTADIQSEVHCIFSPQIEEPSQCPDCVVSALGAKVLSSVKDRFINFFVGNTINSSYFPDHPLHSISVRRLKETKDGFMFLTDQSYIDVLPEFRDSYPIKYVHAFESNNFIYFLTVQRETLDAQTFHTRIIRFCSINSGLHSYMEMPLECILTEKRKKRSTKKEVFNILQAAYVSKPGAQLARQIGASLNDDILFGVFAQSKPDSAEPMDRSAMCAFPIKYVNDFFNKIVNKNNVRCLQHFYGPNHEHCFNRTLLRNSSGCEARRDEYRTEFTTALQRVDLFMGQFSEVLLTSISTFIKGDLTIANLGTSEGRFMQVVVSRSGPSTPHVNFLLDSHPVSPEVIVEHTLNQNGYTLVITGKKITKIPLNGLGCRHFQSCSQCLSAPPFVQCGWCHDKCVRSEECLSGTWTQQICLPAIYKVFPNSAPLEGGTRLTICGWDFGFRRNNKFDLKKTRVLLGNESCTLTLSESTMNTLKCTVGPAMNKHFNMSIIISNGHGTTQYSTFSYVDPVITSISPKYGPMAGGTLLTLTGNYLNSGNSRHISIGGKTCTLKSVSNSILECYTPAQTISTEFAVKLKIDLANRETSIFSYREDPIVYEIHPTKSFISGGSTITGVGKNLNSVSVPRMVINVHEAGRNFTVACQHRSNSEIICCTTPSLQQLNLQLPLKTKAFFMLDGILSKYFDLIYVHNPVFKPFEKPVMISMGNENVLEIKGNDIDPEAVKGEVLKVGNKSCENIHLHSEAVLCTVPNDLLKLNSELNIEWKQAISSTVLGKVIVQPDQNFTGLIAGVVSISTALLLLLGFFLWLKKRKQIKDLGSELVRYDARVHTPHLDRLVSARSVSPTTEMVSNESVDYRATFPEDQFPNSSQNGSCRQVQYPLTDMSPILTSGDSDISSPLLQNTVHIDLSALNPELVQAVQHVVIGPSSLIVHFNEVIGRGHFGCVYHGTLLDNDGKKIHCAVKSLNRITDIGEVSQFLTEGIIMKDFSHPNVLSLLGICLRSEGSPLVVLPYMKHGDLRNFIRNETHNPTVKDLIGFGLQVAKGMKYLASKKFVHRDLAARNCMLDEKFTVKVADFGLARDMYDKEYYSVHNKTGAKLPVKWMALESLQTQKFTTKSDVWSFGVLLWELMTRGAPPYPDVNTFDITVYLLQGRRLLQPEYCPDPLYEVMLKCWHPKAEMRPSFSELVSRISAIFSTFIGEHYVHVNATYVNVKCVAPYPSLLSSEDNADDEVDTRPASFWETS
T1 sequence (A2V9Z4 25-608 limits assumed): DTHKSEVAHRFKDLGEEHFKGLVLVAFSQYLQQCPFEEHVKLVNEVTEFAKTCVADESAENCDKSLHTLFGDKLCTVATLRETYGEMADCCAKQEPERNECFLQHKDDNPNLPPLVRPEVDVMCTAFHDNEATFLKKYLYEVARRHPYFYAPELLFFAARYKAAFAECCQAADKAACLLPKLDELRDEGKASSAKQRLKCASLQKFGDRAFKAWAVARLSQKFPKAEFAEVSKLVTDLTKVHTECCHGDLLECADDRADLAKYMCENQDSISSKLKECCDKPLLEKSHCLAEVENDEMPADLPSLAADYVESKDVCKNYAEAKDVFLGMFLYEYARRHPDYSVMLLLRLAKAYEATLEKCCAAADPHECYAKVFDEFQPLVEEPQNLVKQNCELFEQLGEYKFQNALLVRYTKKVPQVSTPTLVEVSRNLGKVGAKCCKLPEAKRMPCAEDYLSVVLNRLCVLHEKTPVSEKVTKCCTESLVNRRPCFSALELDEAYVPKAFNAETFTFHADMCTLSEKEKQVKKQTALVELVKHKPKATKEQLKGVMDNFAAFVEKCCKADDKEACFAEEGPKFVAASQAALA

B1: Alb-23 (VHH)
VHH: EVQLLESGGGLVQPGGSLRLSCAASGFTFRSFGMSWVRQAPGKGPEWVSSISGSGSDTLYADSVKGRFTISRDNSKNTLYLQMNSLRPEDTAVYYCTIGGSLSRSSQGTLVTVSS
notes: Monovalent anti-serum albumin Nanobody, a humanized version of Alb-1
For orientation: Kd means the constant that tells how readily two partners part at equilibrium. On to B1, for which the Kd in assay [1] is 2.7 nM; in assay [2], 2.6 nM; in assay [3], 3 nM; in assay [4] it was 2.7 nM.

B2: A007901219 (A00790105-9GS-Alb23) (bispecific antibody)
chain: DVQLVESGGGLVQPGGSLRLSCAASGFILDYYAIGWFRQAPGKEREGVLCIDASDDITYYADSVKGRFTISRDNSKNTVYLQMNSLRPEDTAVYYCATPIGLSSSCLLEYDYDYWGQGTLVTVSSGGGGSGGGSEVQLLESGGGLVQPGGSLRLSCAASGFTFRSFGMSWVRQAPGKGPEWVSSISGSGSDTLYADSVKGRFTISRDNSKNTLYLQMNSLRPEDTAVYYCTIGGSLSRSSQGTLVTVSS
notes: Single polypeptide chain; also called A007901219 (Alb23)
By IC50 is commonly meant the concentration at which inhibition is half-maximal. Higher therefore signals lower potency. One may read the koff as a measure of how fast the partners let go of each other. The term kon denotes the rate constant with which the complex forms. For B2, in assay [5], the “IC50, HGF-dependent c-MET phosphorylation in A549 cells (MSD), +HSA” value stood at 4.2 nM and the “IC50, HGF-dependent c-MET phosphorylation in A549 cells (MSD), -HSA” value came out at 5.41 nM. Further, in [6], the “fold improved potency vs 5D5 Fab v2, HGF-dependent c-MET phosphorylation in A549 cells” value is roughly 2 fold. In assay [7], this molecule gave an IC50 of 0.066 nM. Also, in [1], binding was characterised by a dissociation constant (Kd) of 27 nM, the koff worked out at 0.0032 s⁻¹ and the kon amounted to 120000 M⁻¹ s⁻¹. Besides, in assay [8], the Kd was determined as 300 nM, the dissociation rate constant (koff) was 0.05 s⁻¹ and the kon is 170000 M⁻¹ s⁻¹. In assay [2], the affinity, expressed as Kd, was 24 nM; the dissociation rate constant (koff) was 0.0033 s⁻¹; the kon is 130000 M⁻¹ s⁻¹. For the same molecule, the “fold improved potency vs 5D5 Fab v2” value in assay [9] was greater than 5 fold.
